The values that follow come from US20230136228A1 (LAMKAP BIO ALPHA, published 2023).

In test [1] the target is T1, human CEACAM5 (carcinoembryonic antigen, CEA), cell surface (human, UniProt P06731 35-685).
T1 construct: whole, on cells; also called CD66e
T1 sequence (looked up): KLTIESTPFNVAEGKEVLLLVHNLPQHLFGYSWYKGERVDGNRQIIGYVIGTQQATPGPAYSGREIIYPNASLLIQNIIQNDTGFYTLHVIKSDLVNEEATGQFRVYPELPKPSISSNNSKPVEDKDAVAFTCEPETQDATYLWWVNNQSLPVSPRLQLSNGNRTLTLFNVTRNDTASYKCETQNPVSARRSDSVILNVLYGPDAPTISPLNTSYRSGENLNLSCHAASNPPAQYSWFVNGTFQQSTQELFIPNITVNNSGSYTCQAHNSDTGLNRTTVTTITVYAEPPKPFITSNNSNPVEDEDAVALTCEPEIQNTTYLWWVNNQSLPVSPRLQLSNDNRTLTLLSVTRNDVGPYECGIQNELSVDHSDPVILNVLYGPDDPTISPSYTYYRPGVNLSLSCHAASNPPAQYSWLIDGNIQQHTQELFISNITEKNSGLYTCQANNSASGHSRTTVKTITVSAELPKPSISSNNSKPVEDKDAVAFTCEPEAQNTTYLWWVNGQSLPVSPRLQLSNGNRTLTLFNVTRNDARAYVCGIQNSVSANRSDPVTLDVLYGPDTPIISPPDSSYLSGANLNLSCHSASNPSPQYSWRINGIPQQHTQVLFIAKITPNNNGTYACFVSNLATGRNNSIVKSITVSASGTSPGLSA
As to the kind of experiment: flow cytometry, CEA positive cells. In general terms: A flow cytometer gives signals particle by particle.

Test [2] deals with T2, human CEACAM3 (human, UniProt P40198 35-252).
T2 construct: whole, on cells
T2 sequence (looked up): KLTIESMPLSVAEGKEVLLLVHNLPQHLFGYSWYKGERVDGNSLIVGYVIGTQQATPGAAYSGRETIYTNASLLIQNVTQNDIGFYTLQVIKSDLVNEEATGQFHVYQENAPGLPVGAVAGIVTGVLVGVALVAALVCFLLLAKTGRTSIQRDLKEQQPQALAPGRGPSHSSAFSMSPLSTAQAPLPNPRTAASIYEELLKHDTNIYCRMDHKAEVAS
The test is described as follows: flow cytometry, MFI on transfected PEAK cells divided by MFI on WT PEAK cells. The procedure: (§1) Similarly, vectors encoding the full-length version of cyno CEACAM 5 and 6 are also used to express these proteins at the surface of PEAK and/or CHO cells. Non-transfected PEAK and/or CHO cells are used as negative control. Cells are harvested, counted, checked for viability and resuspended at 3×10⁶ cells/ml in FACS buffer (PBS 2% BSA, 0.1% NaN₃). 100 μl of the cell suspension are distributed in V-bottom 96-well plates (3×10⁵ cells/well). The supernatant is removed by centrifugation 3 minutes at 4° C., 1300 rpm and the cells incubated for 15 minutes at 4° C. with increasing concentrations of the antibody according to the invention. The antibodies carrying the anti-CEACAM5 arms to test are diluted in FACS buffer and the concentration range is 30 pM-500 nM. Cells are washed twice with cold FACS buffer and re-incubated for further 15 minutes at 4° C. with a compatible anti-human IgG secondary antibody. Cells are washed twice with cold FACS buffer and resuspended in 300 μl FACS buffer with 1:1500-diluted TOPRO-3 (Invitrogen). Fluorescence is measured using a FACSCalibur™ (BD Biosciences) or a Cytoflex Platform (Beckman Coulter). Dose-response binding curves are fitted using GraphPad Prism8 software. In the same manner, CEACAM1, CEACAM6 and other CEACAMs can be characterized.
(§2) For the bispecific antibodies AB17L3-1/N, AB71L3-1/N, AB72L3-1/N, AB73L3-1/N the MFI measured for binding to CEACAM5 transfected cells was found between 29000 and 41000 (Table 2). In contrast MFI found by using PEAK cells transfected with CEACAM 1,3,4,6,8 were found below 1000 with the only exception of a strong signal for AB72L3-1/N on CEACAM8 transfected cells. When MFI values obtained on transfected cells expressing any given CEACAM are divided by the values obtained on WT PEAK cells, “factors to PEAK WT” can be calculated (Table 3). With the exception of AB72L3-1/N, the antibodies of the invention are all specific to CEACAM5, as the “factor to PEAK WT” values are all below 2.0.

Test [3] deals with T3, human CEACAM6 (human, UniProt P40199 35-320).
T3 construct: whole, on cells; also called CD66c
T3 sequence (looked up): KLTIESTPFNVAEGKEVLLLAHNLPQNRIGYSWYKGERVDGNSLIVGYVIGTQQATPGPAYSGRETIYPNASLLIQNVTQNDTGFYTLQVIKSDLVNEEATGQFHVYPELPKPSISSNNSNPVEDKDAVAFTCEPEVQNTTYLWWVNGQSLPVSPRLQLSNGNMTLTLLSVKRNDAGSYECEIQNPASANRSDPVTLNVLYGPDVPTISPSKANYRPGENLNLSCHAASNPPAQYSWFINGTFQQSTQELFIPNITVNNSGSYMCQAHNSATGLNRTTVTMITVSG
The test is described as above. On the procedure:
as §1, §2

Test [4] has as its target T4, human CEACAM8 (human, UniProt P31997 35-320).
T4 construct: whole, on cells
T4 sequence (looked up): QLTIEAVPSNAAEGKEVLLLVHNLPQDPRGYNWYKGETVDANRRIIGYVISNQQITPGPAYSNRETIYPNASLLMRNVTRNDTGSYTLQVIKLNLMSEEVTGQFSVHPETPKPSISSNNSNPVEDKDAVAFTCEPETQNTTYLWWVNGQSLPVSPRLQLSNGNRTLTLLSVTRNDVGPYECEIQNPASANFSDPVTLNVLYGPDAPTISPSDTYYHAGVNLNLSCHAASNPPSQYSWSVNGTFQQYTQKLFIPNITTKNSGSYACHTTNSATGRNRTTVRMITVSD
The description is as above. On the procedure: as §1, §2

Test [5] has as its target T5, human CEACAM4 (human, UniProt O75871 36-244).
T5 construct: whole, on cells
T5 sequence (looked up): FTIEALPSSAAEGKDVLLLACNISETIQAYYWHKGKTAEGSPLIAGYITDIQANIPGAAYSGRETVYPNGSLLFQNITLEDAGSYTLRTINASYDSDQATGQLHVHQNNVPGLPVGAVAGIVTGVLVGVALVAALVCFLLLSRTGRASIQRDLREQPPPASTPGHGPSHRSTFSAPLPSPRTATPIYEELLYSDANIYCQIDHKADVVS
Described as above. On the procedure: as §1, §2

B1: AB72L3-1/N (bispecific antibody, human IgG1, kappa, lambda, L234A L235A)
heavy: EVQLVESGGGLVQPGGSLKLSCAASGFTFNTYAMNWVRQAPGKGLEWVGRIRSKYNNYATYYADSVKDRFTISRDDSKNTAYLQMNSLKTEDTAVYYCVRHGNFGNSYVSWFAYWGQGTLVTVSSASTKGPSVFPLAPSSKSTSGGTAALGCLVKDYFPEPVTVSWNSGALTSGVHTFPAVLQSSGLYSLSSVVTVPSSSLGTQTYICNVNHKPSNTKVDKRVEPKSCDKTHTCPPCPAPEAAGGPSVFLFPPKPKDTLMISRTPEVTCVVVDVSHEDPEVKFNWYVDGVEVHNAKTKPREEQYNSTYRVVSVLTVLHQDWLNGKEYKCKVSNKALAAPIEKTISKAKGQPREPQVYTLPPSREEMTKNQVSLTCLVKGFYPSDIAVEWESNGQPENNYKTTPPVLDSDGSFFLYSKLTVDKSRWQQGNVFSCSVMHEALHNHYTQKSLSLSPG
light 1: EIVLTQSPATLSLSPGERATLSCRASQSVNSNLNWYQQKPGQAPRLLIYHSTNRPRGIPARFSGSGSGTDFTLTISSLEPEDFAVYYCQQFDYFKEYNTFGQGTKVEIKRTVAAPSVFIFPPSDEQLKSGTASVVCLLNNFYPREAKVQWKVDNALQSGNSQESVTEQDSKDSTYSLSSTLTLSKADYEKHKVYACEVTHQGLSSPVTKSFNRGEC
light 2: QTVVTQEPSLTVSPGGTVTLTCRSSTGAVTTSNYANWFQQKPGQAPRGLIGGTNKRAPGTPARFSGSLLGGKAALTLSGAQPEDEAEYYCALWYKQRWVFGGGTKLTVLGQPKAAPSVTLFPPSSEELQANKATLVCLISDFYPGAVTVAWKADSSPVKAGVETTTPSKQSNNKYAASSYLSLTPEQWKSHRSYSCQVTHEGSTVEKTVAPTECS
notes: Kappa-lambda body, lead optimization wave 2
Regarding B1, in test [1], the “binding higher than TCB2014 (at 200 nM)” value is no less than 40%. Besides, the “Factor to PEAK WT” value in test [2] is 1 fold; in test [3], 1.2 fold; in test [4], 13.1 fold; in test [5] it was 0.8 fold.

B2: AB73L3-1/N (bispecific antibody, human IgG1, kappa, lambda, L234A L235A)
heavy: EVQLVESGGGLVQPGGSLKLSCAASGFTFNTYAMNWVRQAPGKGLEWVGRIRSKYNNYATYYADSVKDRFTISRDDSKNTAYLQMNSLKTEDTAVYYCVRHGNFGNSYVSWFAYWGQGTLVTVSSASTKGPSVFPLAPSSKSTSGGTAALGCLVKDYFPEPVTVSWNSGALTSGVHTFPAVLQSSGLYSLSSVVTVPSSSLGTQTYICNVNHKPSNTKVDKRVEPKSCDKTHTCPPCPAPEAAGGPSVFLFPPKPKDTLMISRTPEVTCVVVDVSHEDPEVKFNWYVDGVEVHNAKTKPREEQYNSTYRVVSVLTVLHQDWLNGKEYKCKVSNKALAAPIEKTISKAKGQPREPQVYTLPPSREEMTKNQVSLTCLVKGFYPSDIAVEWESNGQPENNYKTTPPVLDSDGSFFLYSKLTVDKSRWQQGNVFSCSVMHEALHNHYTQKSLSLSPG
light 1: EIVLTQSPATLSLSPGERATLSCRASQSVNSNLNWYQQKPGQAPRLLIYHSNNRPHGIPARFSGSGSGTDFTLTISSLEPEDFAVYYCQQFDYFREYNTFGQGTKVEIKRTVAAPSVFIFPPSDEQLKSGTASVVCLLNNFYPREAKVQWKVDNALQSGNSQESVTEQDSKDSTYSLSSTLTLSKADYEKHKVYACEVTHQGLSSPVTKSFNRGEC
light 2: QTVVTQEPSLTVSPGGTVTLTCRSSTGAVTTSNYANWFQQKPGQAPRGLIGGTNKRAPGTPARFSGSLLGGKAALTLSGAQPEDEAEYYCALWYKQRWVFGGGTKLTVLGQPKAAPSVTLFPPSSEELQANKATLVCLISDFYPGAVTVAWKADSSPVKAGVETTTPSKQSNNKYAASSYLSLTPEQWKSHRSYSCQVTHEGSTVEKTVAPTECS
notes: as for B1
In the case of B2, in test [1], the “binding higher than TCB2014 (at 200 nM)” value is no less than 40%. For the same molecule, the “Factor to PEAK WT” value in test [2] was 0.9 fold; in test [3], 1 fold; in test [4], 0.8 fold; in test [5], 0.7 fold.
